Experimental data published in US6428781B1, “Composition of an endogenous insulin-like growth factor-II derivative” (Daiichi Pharmaceutical Co., Ltd., priority 1996, dated 2002).

Key:
[1] = target: T1, rat IGFBP-3 (RBP-3 E. coli) (Rattus norvegicus, UniProt P15473); assay: Solid-phase binding of HRP-IGF-II to immobilized IGFBP-3, competitive inhibition; conditions: for inhibitory activity against the binding of IGF-II to IGFBP-3 (RBP-3 E. coli): final concentration of each compound 100 μg/ml, compared to the other test compounds of Table 1
T1 construct: made in house; host or cells: Escherichia coli (periplasm)
T1 sequence (P15473 28-292): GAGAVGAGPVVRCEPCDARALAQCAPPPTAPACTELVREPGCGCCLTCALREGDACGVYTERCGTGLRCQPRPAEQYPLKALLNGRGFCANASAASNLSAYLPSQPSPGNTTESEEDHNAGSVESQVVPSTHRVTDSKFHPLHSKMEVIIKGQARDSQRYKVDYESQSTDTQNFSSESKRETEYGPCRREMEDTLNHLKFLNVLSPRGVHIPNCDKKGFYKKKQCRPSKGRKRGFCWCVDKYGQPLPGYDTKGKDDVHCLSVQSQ
Experimental: A 96-well microtiter plate manufactured by Costar Corp.; 50 mM sodium phosphate buffer (pH 6.5) as a basic buffer for immuobilization; basic buffer supplemented with 0.03% Tween 20, basic buffer supplementee with 1% BSA and basic buffer supplemented with 0.25% BSA an 0.03% Tween 20 were used in the washing, blocking and binding steps, respectively. After each reaction, wells were washed twice with 400 μl/well of buffer. Horseradish peroxidase-labeled IGF-II (hereinafter “HRP-IGF-II”) was prepared using a commercially available kit (PIERCE Chemichal Company).
To the microtiter plate, RBP-3 E. coli (150 ng/ml) was added in an amount of 50 μl/well and allowed to stand overnight at 4° C. for immobilization. After blocking, 50 μl/well of HRP-IGF-II (final concentration diluted 12,000-fold) was added at 25° C. for 2 hours in the presence or absence of a test compound. Test compounds at various concentrations were added to each well in a total volume of 50 μl.
In the final step, a solution of 2,2′-azino-bis(3-ethylbenzthiazoline-6-sulfonic acid) (hereinafter “ABTS”; Kirkegaard & Perry Laboratories) was added to each well (100 μl/well) and allowed to stand at room temperature. The absorbance (O.D.) at 405 nm was measured on a plate reader (“VMAX™”, Molecular Devices).
The absorbance in the absence of a test compound is designated “B0”, and in the presence of a test compound is designated as “B”. The absorbance in the absence of both a test compound and using a non-immobilized well (a well not containing RBP-3 E. coli) is designated as nonspecific bound (NSB). The percent binding of labeled IGF-II to immobilized IGFBP-3 in the presence of a test compound is calculated from the following equation: […]
The binding reactions for each of the test compounds, was performed triplicate. The average value is plotted and the SD value is indicated with a bar (refer to FIG. 8).
Each compound was dissolved or suspended in basic buffer containing 5% methanol at a final concentration of 1 mg/ml. The resulting solution or suspension was diluted with the reaction buffer 5-fold or to a final concentration of 200 μg/ml. The final concentration of each compound at the time of measurement was 100 μg/ml.
The percent binding of IGF-II to IGFBP-3 (RBP-3 E. coli) in the presence of a test compound was calculated using the following formula:
“percent total bound (100(%))−percent actual bound (%)”=percent inhibitory activity (%) of the test specimen.
Measurements for each of the test compounds were performed twice, and the average inhibitory activity was determined.

[2] = target: T2, human placental IGF-I receptor (Homo sapiens, UniProt P08069); assay: IGF-I receptor radioreceptor binding assay with 125I-IGF-I
T2 construct: human placental IGF-I receptor; from tissue; host or cells: human placenta
Experimental: (§1) The [Leu27, Leu43]rIGF-II derivative described in Example 8, was characterized for its binding affinity to human placental IGF-I receptor and human placental insulin receptor using a radioreceptor assay (Le Bon, T. R., et al., J. Biol. Chem., 261, 7685 (1986); Fujita-Yamaguchi, Y., et al., J. Biol. Chem., 258, 5045 (1983)).
(§2) In the first step, ^125I-IGF (or ^125I-insulin) (Amersham International plc) in an amount of 2×10^4 cpm was incubated with various amounts of the IGF receptor or the insulin receptor, to determine an amount of the receptor to which 50% of ^125I-IGF (or ^125I-insulin) binds.
(§3) [Leu27, Leu43]rIGF-II was added at various concentrations to aliquots of the mixture containing the determined amount of the receptor and ^125I-IGF (or ^125I-insulin) (2×10^4 cpm). The final volume of the reaction mix was brought to […] using a 50 mM Tris-HCl buffer (pH 7.4) containing 0.1% BSA and 0.075% Triton X-100, and allowed to incubate overnight at 4° C. […] The reaction mixture was centrifuged (3000 rpm×30 min, 4° C.), the supernatant decanted, and the cpm value for the pellet was measured by gamma counting. […]
(§4) The cpm value in the absence of a receptor is designated as nonspecific bound (NSB). […] The percent binding to a receptor is calculated from the following equation: […]

[3] = target: T3, human placental insulin receptor (Homo sapiens, UniProt P06213); assay: Insulin receptor radioreceptor binding assay with 125I-insulin
T3 construct: human placental insulin receptor; from tissue; host or cells: human placenta
Experimental: as §1, §2, §3, §4

[4] = Evaluation of blood lipid level (1), nonfasting SD rats; type: in vivo; conditions: plasma; for total glyceride concentration 6 hours after administration, compared to negative control: IGF-I 50 μg/kg s.c., anti-RBP-3 pAb #35 20 mg/head i.p.; for total glyceride concentration 6 hours after administration, compared to negative control / total cholesterol concentration 24 hours after administration, compared to negative control: [Leu27, Leu43]rIGF-II 1,000 μg/kg s.c.
Experimental: [Leu27, Leu43]rIGF-II (1,000 μg/kg) was administered, subcutaneously, to a group of nonfasting SD rats (n=3, 8 weeks old, male, average weight: 300 g, purchased from Charles River Japan).
Anti-RBP-3 pAb #35 (20 mg/head) was administered, intraperitoneally, to another group of SD rats.
As a negative control, physiological saline (500 μl/head) was administered, subcutaneously, and as a positive control group, IGF-I (50 μg/kg, 200 μg/kg) was administered, subcutaneously.
About 500 μl of blood was sequentially collected into EDTA-coated glass tubes from the caudal vein. Thirty minutes after collection, the blood was centrifuged (3,500 rpm×12 mm 25° C.), and plasma supernatant was recovered and stored at −80° C. until assayed. The total cholesterol and total triglyceride concentrations of the plasma were measured in accordance with a “Hitachi 715 model” automatic analyzer using the enzyme method of “Autocera CH02 and TG2” (each, manufactured by Daiichi Pure Chemicals Co., Ltd.).

insulin receptor = insulin receptor (Homo sapiens, UniProt P06213); conditions: Sakano et al. 1991; cited from earlier work
[5] = target: IGF-II/cation-independent mannose-6-phosphate receptor (Homo sapiens, UniProt P11717); conditions: Sakano et al. 1991; cited from earlier work
Sequence of IGF-II/cation-independent mannose-6-phosphate receptor (P11717 41-2491): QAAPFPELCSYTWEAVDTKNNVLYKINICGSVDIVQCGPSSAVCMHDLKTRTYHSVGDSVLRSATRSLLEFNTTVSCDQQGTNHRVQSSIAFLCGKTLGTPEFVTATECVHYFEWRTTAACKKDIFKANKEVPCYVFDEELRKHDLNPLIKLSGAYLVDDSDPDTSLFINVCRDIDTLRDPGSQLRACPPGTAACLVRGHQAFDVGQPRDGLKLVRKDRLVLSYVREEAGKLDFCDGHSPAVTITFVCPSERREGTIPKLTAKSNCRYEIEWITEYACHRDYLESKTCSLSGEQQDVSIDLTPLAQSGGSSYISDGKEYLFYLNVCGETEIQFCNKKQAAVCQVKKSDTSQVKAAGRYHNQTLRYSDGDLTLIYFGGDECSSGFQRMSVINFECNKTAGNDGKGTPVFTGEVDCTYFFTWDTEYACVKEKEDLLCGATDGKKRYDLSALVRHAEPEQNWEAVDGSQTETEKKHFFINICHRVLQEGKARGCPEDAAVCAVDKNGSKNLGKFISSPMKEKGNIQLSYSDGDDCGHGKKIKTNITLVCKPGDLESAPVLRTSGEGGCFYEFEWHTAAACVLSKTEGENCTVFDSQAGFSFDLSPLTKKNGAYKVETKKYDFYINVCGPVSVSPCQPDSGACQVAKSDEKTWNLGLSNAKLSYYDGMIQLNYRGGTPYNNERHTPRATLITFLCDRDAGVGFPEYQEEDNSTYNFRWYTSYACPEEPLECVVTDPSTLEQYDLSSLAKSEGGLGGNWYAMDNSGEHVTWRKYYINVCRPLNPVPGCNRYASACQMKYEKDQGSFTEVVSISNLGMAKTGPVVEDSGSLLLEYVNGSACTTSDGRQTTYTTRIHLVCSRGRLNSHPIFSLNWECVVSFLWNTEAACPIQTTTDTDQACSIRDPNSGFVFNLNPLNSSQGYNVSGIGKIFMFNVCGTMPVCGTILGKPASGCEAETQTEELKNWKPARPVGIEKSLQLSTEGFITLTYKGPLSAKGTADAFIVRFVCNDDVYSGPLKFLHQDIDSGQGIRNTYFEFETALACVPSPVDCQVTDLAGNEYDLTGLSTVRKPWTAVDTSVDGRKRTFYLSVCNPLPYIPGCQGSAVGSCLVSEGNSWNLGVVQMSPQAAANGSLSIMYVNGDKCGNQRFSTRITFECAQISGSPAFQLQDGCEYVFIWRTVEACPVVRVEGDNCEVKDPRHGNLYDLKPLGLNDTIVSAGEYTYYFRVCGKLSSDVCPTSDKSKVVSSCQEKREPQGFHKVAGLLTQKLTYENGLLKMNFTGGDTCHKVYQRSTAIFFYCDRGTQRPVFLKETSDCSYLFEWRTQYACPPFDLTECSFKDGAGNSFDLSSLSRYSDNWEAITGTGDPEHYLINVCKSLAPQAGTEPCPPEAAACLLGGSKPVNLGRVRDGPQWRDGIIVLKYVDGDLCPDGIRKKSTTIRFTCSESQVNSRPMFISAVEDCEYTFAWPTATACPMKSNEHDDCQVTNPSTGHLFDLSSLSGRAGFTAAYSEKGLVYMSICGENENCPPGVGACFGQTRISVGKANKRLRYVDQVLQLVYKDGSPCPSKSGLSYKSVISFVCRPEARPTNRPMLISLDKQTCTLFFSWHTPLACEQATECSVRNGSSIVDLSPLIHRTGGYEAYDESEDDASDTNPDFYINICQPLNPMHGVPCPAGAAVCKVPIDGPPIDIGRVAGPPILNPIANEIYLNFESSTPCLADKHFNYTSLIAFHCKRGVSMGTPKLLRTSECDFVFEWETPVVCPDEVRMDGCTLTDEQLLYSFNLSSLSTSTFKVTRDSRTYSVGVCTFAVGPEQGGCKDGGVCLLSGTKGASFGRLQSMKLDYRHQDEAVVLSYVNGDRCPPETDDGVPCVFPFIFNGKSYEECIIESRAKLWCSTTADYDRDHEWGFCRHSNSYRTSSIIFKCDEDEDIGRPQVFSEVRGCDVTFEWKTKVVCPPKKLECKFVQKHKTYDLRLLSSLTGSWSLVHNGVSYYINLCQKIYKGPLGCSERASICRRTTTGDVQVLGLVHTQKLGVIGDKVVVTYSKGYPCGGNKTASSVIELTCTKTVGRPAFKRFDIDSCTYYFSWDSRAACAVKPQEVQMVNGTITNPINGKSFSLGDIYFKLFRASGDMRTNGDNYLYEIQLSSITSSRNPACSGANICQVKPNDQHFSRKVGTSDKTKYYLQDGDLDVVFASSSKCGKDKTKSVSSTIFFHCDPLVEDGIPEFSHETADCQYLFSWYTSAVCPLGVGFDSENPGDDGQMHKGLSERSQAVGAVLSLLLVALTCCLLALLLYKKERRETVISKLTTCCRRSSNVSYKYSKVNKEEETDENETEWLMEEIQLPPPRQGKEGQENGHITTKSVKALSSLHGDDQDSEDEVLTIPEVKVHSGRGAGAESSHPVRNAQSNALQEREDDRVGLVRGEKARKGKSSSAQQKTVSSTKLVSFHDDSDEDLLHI

IGFBP-3 = IGFBP-3 (Homo sapiens, UniProt P17936); conditions: Bach et al. 1993; cited from earlier work
Sequence of IGFBP-3 (P17936 28-291, species assumed): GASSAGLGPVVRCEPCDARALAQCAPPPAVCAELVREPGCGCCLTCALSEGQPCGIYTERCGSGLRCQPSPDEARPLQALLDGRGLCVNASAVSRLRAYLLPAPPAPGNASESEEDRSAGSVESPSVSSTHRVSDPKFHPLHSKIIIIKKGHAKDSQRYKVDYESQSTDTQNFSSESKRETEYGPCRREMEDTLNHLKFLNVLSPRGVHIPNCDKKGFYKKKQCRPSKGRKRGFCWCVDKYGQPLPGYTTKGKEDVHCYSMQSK

IGF-I receptor = IGF-I receptor (Homo sapiens, UniProt P08069); conditions: Sakano et al. 1991; cited from earlier work
cell proliferation = conditions: Sakano et al. 1991; cited from earlier work
[6] = adult humans, intravenous injection, 100 μg/kg; Guler et al. 1987; cited from earlier work

Compound: CC[C@@]1(O)C[C@H](O[C@H]2C[C@H](N(C)C)[C@H](O[C@H]3C[C@H](O)[C@H](O[C@H]4CCC(=O)[C@H](C)O4)[C@H](C)O3)[C@H](C)O2)c2c(cc3c(c2O)C(=O)c2c(O)cccc2C3=O)[C@H]1C(=O)OC [Compound 29, Aclacinomycin A]
- inhibitory activity against the binding of IGF-II to IGFBP-3 (RBP-3 E. coli) [1]: potent inhibitory activity

Compound: [Leu27, Leu43]rIGF-II: human IGF-II derivative; tyrosine at residue 27 and valine at residue 43 each replaced with leucine
- affinity for IGFBP-3 [1]: has affinity for IGFBP-3
- inhibition of the binding of IGF (labeled IGF-II) and immobilized IGFBP-3 ([1]; procedure of Example 10): at concentrations similar to those seen for IGF-II
- affinity for / binding to the IGF-I receptor [2]: little or no binding
- affinity for the IGF-I receptor, as % of that for IGF-I [2]: 1 to 2%
- affinity for / binding to the insulin receptor [3]: little or no binding
- affinity for the insulin receptor, as % of that for insulin [3]: 1 to 2%
- total glyceride concentration 6 hours after administration, compared to negative control [4]: tendency toward lowering
- total cholesterol concentration 24 hours after administration, compared to negative control ([4]; IGF-I 200 μg/kg s.c.): significant decrease

Compound: [Leu 43] rIGF-II: human IGF-II derivative with a single amino acid substitution (Leu at position 43), from the literature
- binding to the insulin receptor (insulin receptor): almost no binding
- binding to the IGF-II/cation-independent mannose-6-phosphate receptor [5]: bind
- binding to IGFBP-3 compared to wild type (IGFBP-3): almost similar to the wild type
- binding to the IGF-I receptor (IGF-I receptor): almost no binding
- effect on cell proliferation (cell proliferation): significantly lowered effect

Compound: [Leu 27] rIGF-II: human IGF-II derivative with a single amino acid substitution (Leu at position 27), from the literature
- binding to the insulin receptor (insulin receptor): almost no binding
- binding to the IGF-II/cation-independent mannose-6-phosphate receptor [5]: bind
- binding to IGFBP-3 compared to wild type (IGFBP-3): almost similar to the wild type
- binding to the IGF-I receptor (IGF-I receptor): almost no binding
- effect on cell proliferation (cell proliferation): significantly lowered effect

Compound: Heparin [Compound 31]
- inhibitory activity against the binding of IGF-II to IGFBP-3 (RBP-3 E. coli) [1]: potent inhibitory activity

Compound: O=c1oc2c(O)c(O)cc3c(=O)oc4c(O)c(O)cc1c4c23 [Compound 27, Ellagic acid]
- inhibitory activity against the binding of IGF-II to IGFBP-3 (RBP-3 E. coli) [1]: potent inhibitory activity

Compound: IGF-I: Human IGF-I purchased from GroPep Pty. Ltd.; positive control
- total glyceride concentration 6 hours after administration, compared to negative control [4]: significantly decreased
- total cholesterol concentration 6 hours after administration, compared to negative control ([4]; IGF-I 200 μg/kg s.c.): significantly decreased
- total cholesterol concentration 24 hours after administration, compared to negative control ([4]; IGF-I 200 μg/kg s.c.): significantly decreased
- blood glucose levels [6]: lowering of blood glucose levels
- time of lowest blood glucose level after injection [6]: 20 min
